Molecular target: SAR1A (human) (UniProt Q9NR31)
Test: liposome flotation assay; SAR1 and SEC31A-af incubated with 100-nm synthetic liposomes and GMP-PNP, 30 min at 37 °C, floated through a sucrose gradient in HKM buffer (pH 6.8); SDS-PAGE and SYPRO-Ruby staining; SEC31-af signal normalized to SAR1

For “GTPase-activating fragment of SEC31A (from UniProt O94979 1-1220) (domain or fragment)”, the fold recruitment relative to SAR1B was 2 fold.

Reference: publication PMC7307210
